Test results published in publication PMC4733052, “Heart of glass anchors Rasip1 at endothelial cell-cell junctions to support vascular integrity” (eLife, 2016).
Positions count from the first letter of the chain named. In names and notes the source's numbering stands.

T1: αIIb integrin cytoplasmic tail (Homo sapiens (Human), UniProt P08514, biotin on the in vivo biotinylation peptide tag)
T1 chain: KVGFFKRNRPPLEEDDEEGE

B1: recombinant His-MBP-fusion Rasip1 central domain (residues 266-550) (protein)
chain: EAFGAADSEGTGAPSWRPQKNRSRAASGGAALASPGPGTGSGAPAGSGGKERSENLSLRRSVSELSLQGRRRRQQERRQQALSMAPGAADAQIGTADPGDFDQLTQCLIQAPSNRPYFLLLQGYQDAQDFVVYVMTREQHVFGRGGNSSGRGGSPAPYVDTFLNAPDILPRHCTVRAGPEHPAMVRPSRGAPVTHNGCLLLREAELHPGDLLGLGEHFLFMYKDPRTGGSGPARPPWLPARPGATPPGPGWAFSCRLCGRGLQERGEALAAYLDGREPVLRFRPR
B2: recombinant Rasip1 RA domain (residues 134-285) (domain or fragment, human, UniProt Q5U651 134-285, looked up)
chain: EPPLATRATAPPGVLKIFGAGLASGANYKSVLATARSTARELVAEALERYGLAGSPGGGPGESSCVDAFALCDALGRPAAAGVGSGEWRAEHLRVLGDSERPLLVQELWRARPGWARRFELRGREEARRLEQEAFGAADSEGTGAPSWRPQK
notes: Rasip1, human, Ras-association (RA) domain residues 134-285; Cloned into pETM-11; also called Rasip1 RA domain wild-type; Rasip1 wild-type
B3: recombinant Rasip1 RA domain (residues 134-285) R182E (domain or fragment, human, UniProt Q5U651 134-285, looked up)
chain: B2 chain with R49E
notes: Rasip1, human, RA domain residues 134-285 with R182E; also called Rasip1(R182E); Rasip1 RA domain (R182E)
B4: human Rap1 isoform Rap1B (residues 1–167), GMP-PNP-bound (natural protein, UniProt P61224 1-167, looked up)
chain: MREYKLVVLGSGGVGKSALTVQFVQGIFVEKYDPTIEDSYRKQVEVDAQQCMLEILDTAGTEQFTAMRDLYMKNGQGFALVYSITAQSTFNDLQDLREQILRVKDTDDVPMILVGNKCDLEDERVVGKEQGQNLARQWNNCAFLESSAKSKINVNEIFYDLVRQINR
notes: Rap1B, human, residues 1-167; Loaded with GMP-PNP; expression and purification as in Gingras et al., 2013; source: Escherichia coli strain CK600K (pTAC vector), purified, nucleotide exchanged for GMP-PNP

What was measured:
[1] = biological target: T1, αIIb integrin cytoplasmic tail; test: pull-down (NeutrAvidin bead-immobilised tail peptide, Coomassie-stained SDS-PAGE)
[2] = biological target: the molecule itself; test: SEC; Rasip1 RA domain alone (50 μM) on Superdex-75 (10/300); apparent mass against calculated monomer mass 16.3 kDa
[3] = biological target: B4; test: ITC; VP-ITC at 25°C; 335 μM GMP-PNP-bound Rap1B from the syringe into 30 μM Rasip1 RA domain (monomer concentration) in the cell; 20 mM Sodium Phosphate, 200 mM NaCl, 3 mM MgCl2, pH 6.5, 0.1 mM GMP-PNP; single-site fit; settings: both partners purified
[4] = biological target: B2; test: as above; settings: both partners purified

Binder: B1
binding result [1]: no binding

Binder: B2
stoichiometry N [2]: 2
Kd [3]: 770 ± 90 nM

Binder: B3
binding result [2]: binds

Binder: B4
stoichiometry N [4]: 2 Rap1 monomers per Rasip1 dimer
